Assay results published in publication PMC3366790 (The Journal of Biological Chemistry, 2012).

Molecular target: T1, full-length CDC34 with C191S/C223S substitutions (human, UniProt P49427 1-236, C191S | C223S)
T1 sequence: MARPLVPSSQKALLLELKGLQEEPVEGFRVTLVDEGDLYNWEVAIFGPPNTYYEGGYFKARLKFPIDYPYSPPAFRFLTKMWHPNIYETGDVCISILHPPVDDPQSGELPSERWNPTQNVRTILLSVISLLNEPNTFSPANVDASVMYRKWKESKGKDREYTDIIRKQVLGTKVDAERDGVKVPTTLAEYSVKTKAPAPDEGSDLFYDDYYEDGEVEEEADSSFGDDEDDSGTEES
Assay: NMR titration

- Kd: > 1000 µM
B1: sRbx1^12–108 (solubilized human Rbx1/ROC1 residues 12–108 with W27S, V30S, L32Q, W33S) (domain or fragment)
chain: not shown
